This assay has as its target tropomyosin receptors kinase A (TrkA) (rat (endogenous in PC12)) (UniProt P35739).
Chain of UniProt P35739 (P35739 33-799): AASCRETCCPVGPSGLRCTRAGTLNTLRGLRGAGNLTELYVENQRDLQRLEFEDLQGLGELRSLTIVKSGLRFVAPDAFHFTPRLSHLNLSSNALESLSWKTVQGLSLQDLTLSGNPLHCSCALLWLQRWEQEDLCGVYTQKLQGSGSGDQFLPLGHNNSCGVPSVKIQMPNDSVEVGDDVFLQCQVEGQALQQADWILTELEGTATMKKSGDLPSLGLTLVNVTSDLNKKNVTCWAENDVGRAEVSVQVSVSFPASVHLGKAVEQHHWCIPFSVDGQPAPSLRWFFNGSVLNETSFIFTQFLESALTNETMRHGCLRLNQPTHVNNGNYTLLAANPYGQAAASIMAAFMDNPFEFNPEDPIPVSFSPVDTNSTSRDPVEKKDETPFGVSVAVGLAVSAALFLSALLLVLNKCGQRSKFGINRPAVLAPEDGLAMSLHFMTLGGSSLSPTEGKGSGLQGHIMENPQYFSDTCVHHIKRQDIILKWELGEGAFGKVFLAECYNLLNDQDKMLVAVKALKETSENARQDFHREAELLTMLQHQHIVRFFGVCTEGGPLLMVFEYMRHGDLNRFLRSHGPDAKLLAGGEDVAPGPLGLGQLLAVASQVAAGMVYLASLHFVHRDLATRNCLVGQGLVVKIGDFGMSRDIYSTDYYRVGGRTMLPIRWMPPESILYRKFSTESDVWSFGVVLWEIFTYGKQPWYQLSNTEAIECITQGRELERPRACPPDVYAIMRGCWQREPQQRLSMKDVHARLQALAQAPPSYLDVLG

For the substance d-NGF(1-15) (peptide), the phosphorylation of TrkA (Tyr-490), Western blot, PC12 cells, 50 uM peptide with 1 uM CuSO4, 10 min, % of the untreated control worked out at 1020% and the phosphorylation of TrkA (Tyr-490), Western blot, PC12 cells, 50 uM peptide, 10 min, % of the untreated control was 653%.

NGF(1-14) (peptide) yielded a phosphorylation of TrkA (Tyr-490), Western blot, PC12 cells, 50 uM peptide with 1 uM CuSO4, 10 min, % of the untreated control of 825% and a phosphorylation of TrkA (Tyr-490), Western blot, PC12 cells, 50 uM peptide, 10 min, % of the untreated control of 540%.

The values are drawn from publication PMC6523629.
